From paper PMC5103362 (Autophagy, 2016)
Values belong to the binder of their own block, whether it stands above or below them.

How the values were obtained:
Vps15 (WD40Δ) (1 to 981) = target: T1, Vps15 (WD40Δ) (1 to 981) (S. cerevisiae, UniProt P22219 1-981); test: negative-stain EM reconstruction; co-purified yeast Vps15-Vps34 D731N and Vps15 (WD40Δ)-Vps34 D731N dimers, 2% uranyl acetate; 28 Å; details: both partners purified
T1 construct: Vps15, yeast (S. cerevisiae), residues 1 to 981, without the WD40 domain; also called Vps15Δ WD40; ScVps15 (WD40Δ)
T1 sequence (looked up): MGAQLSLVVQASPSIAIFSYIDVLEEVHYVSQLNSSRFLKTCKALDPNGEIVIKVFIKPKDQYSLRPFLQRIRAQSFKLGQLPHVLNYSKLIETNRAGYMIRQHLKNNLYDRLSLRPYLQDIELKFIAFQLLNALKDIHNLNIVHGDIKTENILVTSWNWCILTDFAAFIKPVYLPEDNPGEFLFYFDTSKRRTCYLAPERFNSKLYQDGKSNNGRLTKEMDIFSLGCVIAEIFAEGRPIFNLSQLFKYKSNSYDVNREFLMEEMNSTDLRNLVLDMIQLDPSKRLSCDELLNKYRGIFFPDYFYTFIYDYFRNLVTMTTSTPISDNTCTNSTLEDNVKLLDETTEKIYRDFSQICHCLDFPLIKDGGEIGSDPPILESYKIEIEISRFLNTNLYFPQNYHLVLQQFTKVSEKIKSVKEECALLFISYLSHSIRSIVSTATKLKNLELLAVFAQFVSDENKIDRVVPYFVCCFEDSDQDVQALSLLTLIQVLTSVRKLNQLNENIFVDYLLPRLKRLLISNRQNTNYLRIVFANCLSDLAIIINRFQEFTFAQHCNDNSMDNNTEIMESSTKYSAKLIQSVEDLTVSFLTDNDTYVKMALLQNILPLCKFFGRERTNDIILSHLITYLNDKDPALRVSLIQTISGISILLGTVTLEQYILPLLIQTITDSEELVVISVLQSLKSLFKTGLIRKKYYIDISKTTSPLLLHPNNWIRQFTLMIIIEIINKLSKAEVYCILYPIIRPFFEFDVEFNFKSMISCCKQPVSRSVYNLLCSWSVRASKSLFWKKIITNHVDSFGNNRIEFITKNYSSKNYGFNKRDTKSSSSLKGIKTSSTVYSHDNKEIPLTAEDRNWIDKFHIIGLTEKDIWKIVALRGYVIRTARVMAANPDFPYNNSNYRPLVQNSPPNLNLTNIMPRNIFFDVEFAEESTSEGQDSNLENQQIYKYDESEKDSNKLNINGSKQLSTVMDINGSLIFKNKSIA

[1] = target: T2, Vps15, full-length (of the Vps15-Vps34 D731N dimer) (S. cerevisiae, UniProt P22219 1-1454); test: as above; details: both partners purified
T2 construct: Vps15, yeast (S. cerevisiae), full-length; also called ScVps15
T2 sequence (looked up): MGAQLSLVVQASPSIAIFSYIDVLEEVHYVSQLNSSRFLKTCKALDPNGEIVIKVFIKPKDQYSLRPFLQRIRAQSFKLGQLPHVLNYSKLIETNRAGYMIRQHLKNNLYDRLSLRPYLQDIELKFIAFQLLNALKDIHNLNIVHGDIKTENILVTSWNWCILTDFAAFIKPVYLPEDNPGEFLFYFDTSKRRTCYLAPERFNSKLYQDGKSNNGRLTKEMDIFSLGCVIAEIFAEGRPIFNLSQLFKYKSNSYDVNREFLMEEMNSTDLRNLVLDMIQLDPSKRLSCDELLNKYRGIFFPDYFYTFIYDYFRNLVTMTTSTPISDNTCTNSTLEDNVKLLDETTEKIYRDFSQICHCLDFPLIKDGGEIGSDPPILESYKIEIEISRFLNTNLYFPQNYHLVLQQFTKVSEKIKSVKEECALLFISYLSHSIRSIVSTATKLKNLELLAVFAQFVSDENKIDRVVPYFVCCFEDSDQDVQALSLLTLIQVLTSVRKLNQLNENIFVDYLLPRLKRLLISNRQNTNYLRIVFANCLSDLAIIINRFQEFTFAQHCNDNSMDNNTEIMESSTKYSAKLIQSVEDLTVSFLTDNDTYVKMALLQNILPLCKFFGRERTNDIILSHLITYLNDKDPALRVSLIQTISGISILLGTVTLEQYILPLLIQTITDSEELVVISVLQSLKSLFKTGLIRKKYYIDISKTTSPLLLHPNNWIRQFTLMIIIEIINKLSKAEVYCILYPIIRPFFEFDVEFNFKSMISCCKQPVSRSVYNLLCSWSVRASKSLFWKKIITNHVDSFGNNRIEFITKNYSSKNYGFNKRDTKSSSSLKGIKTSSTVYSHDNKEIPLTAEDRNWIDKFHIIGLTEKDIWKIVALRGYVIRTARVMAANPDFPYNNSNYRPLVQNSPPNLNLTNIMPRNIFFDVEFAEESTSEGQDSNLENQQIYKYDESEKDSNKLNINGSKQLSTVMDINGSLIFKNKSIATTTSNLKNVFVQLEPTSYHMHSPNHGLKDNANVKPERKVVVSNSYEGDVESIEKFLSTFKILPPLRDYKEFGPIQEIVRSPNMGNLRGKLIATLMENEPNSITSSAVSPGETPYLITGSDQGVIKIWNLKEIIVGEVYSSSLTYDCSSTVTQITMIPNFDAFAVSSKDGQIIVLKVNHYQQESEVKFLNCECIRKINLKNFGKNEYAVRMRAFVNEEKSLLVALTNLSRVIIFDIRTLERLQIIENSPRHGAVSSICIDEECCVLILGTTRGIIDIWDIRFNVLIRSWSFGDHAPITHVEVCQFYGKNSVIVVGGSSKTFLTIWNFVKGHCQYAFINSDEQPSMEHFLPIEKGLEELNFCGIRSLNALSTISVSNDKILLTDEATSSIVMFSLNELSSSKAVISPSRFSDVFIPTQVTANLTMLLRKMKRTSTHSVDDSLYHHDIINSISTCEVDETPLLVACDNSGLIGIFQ

[2] = target: T3, yeast complex I (Vps15-Vps34-Vps30-Atg14 heterotetramer) (S. cerevisiae, UniProt P22219 1-1454; P22543 1-875; Q02948 1-557; P38270 1-344); test: SEC; purified yeast complex I mixed with purified Atg38 at 6:1 or 1:6 molar ratio (8.6 µM complex I with 1.4 or 51.7 µM Atg38), on ice 30 min, S200 10/30; 20 mM Tris pH 8.8, 150 mM NaCl, 0.5 mM TCEP; fractions on SDS-PAGE; details: both partners purified
T3 construct: Vps15, S. cerevisiae, subunit of complex I; Vps34, S. cerevisiae, subunit of complex I; Vps30/Atg6, S. cerevisiae, subunit of complex I; Atg14, S. cerevisiae, subunit of complex I; expected mass 379 kDa; also called CI; heterotetrameric S. cerevisiae complex I; copies: 1 + 1 + 1 + 1
T3 sequence (Q02948 whole entry, one chain of several): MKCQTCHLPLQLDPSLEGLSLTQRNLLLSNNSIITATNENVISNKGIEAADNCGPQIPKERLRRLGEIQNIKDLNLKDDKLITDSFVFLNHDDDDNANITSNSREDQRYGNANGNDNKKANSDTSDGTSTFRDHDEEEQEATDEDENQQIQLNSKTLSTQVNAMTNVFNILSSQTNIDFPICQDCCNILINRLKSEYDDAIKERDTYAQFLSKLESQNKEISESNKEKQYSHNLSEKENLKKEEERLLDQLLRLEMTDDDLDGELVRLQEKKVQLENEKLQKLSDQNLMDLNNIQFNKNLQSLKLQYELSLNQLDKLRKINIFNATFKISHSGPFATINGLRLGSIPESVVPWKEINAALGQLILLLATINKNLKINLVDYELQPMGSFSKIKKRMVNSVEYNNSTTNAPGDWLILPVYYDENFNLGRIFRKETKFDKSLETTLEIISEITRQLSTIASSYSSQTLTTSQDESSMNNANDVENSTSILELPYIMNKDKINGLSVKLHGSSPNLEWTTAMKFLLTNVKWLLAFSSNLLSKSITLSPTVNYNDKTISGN

[3] = target: the molecule itself; test: SEC-MALS; Atg38 full-length, MIT domain and deletion variants alone on S75 10/30; 20 mM Tris pH 7.9, 300 mM NaCl, 1 mM TCEP
[4] = target: T3, yeast complex I …; test: SEC-MALS; purified yeast complex I (co-expressed, co-purified) and gel-filtration purified complex I + Atg38 on S200 10/30; 20 mM Tris pH 8.8, 150 mM NaCl, 1 mM TCEP; details: both partners purified
[5] = target: T4, Atg14 (subunit of the purified yeast complex I) (S. cerevisiae, UniProt P38270 1-344); test: HDX-MS; complex I, free Atg38 and gel-filtered complex I + Atg38; 2.5 µM protein, 20 mM Tris pH 8.0, 50 mM NaCl, 2 mM TCEP, 75% D2O, 3 to 3000 sec at 23°C; details: both partners purified
T4 construct: Atg14, S. cerevisiae
T4 sequence (looked up): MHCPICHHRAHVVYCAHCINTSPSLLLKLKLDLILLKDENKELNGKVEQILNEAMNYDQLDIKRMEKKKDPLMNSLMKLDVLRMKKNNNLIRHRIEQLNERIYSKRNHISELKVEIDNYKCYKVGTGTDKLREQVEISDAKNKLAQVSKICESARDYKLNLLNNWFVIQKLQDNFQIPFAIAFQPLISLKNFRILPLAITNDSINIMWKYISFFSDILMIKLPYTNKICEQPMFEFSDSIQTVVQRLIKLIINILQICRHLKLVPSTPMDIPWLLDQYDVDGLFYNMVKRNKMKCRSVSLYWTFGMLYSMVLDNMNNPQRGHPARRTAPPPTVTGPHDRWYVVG

binding result (Vps15 (WD40Δ) (1 to 981)): binds
binding result [1]: binds
B1: Vps34 D731N (KI) (enzyme, S. cerevisiae, UniProt P22543 1-875, looked up)
chain: MSLNNITFCVSQDLDVPLKVKIKSLEGHKPLLKPSQKILNPELMLIGSNVFPSSDLIVSLQVFDKERNRNLTLPIYTPYIPFRNSRTWDYWLTLPIRIKQLTFSSHLRIILWEYNGSKQIPFFNLETSIFNLKDCTLKRGFESLKFRYDVIDHCEVVTDNKDQENLNKYFQGEFTRLPWLDEITISKLRKQRENRTWPQGTFVLNLEFPMLELPVVFIEREIMNTQMNIPTLKNNPGLSTDLREPNRNDPQIKISLGDKYHSTLKFYDPDQPNNDPIEEKYRRLERASKNANLDKQVKPDIKKRDYLNKIINYPPGTKLTAHEKGSIWKYRYYLMNNKKALTKLLQSTNLREESERVEVLELMDSWAEIDIDDALELLGSTFKNLSVRSYAVNRLKKASDKELELYLLQLVEAVCFENLSTFSDKSNSEFTIVDAVSSQKLSGDSMLLSTSHANQKLLKSISSESETSGTESLPIVISPLAEFLIRRALVNPRLGSFFYWYLKSESEDKPYLDQILSSFWSRLDKKSRNILNDQVRLINVLRECCETIKRLKDTTAKKMELLVHLLETKVRPLVKVRPIALPLDPDVLICDVCPETSKVFKSSLSPLKITFKTTLNQPYHLMFKVGDDLRQDQLVVQIISLMNELLKNENVDLKLTPYKILATGPQEGAIEFIPNDTLASILSKYHGILGYLKLHYPDENATLGVQGWVLDNFVKSCAGYCVITYILGVGNRHLDNLLVTPDGHFFHADFGYILGQDPKPFPPLMKLPPQIIEAFGGAESSNYDKFRSYCFVAYSILRRNAGLILNLFELMKTSNIPDIRIDPNGAILRVRERFNLNMSEEDATVHFQNLINDSVNALLPIVIDHLHNLAQYWRT

B2: Atg38, full-length (natural protein, S. cerevisiae, UniProt Q05789 1-226, looked up)
chain: MSTLAEVYTIIEDAEQECRKGDFTNAKAKYQEAIEVLGPQNENLSQNKLSSDVTQAIDLLKQDITAKIQELELLIEKQSSEENNIGMVNNNMLIGSVILNNKSPINGISNARNWDNPAYQDTLSPINDPLLMSILNRLQFNLNNDIQLKTEGGKNSKNSEMKINLRLEQFKKELVLYEQKKFKEYGMKIDEITKENKKLANEIGRLRERWDSLVESAKQRRDKQKN
notes: also called purified Atg38; free Atg38; source: E. coli, purified (Glutathione Sepharose, TEV, HiTrap Q, S75); not shown: GST, N-terminal, cleaved
stoichiometry N [2]: 2 Atg38 chains per complex I
stoichiometry N [3]: 2
stoichiometry N [4]: 1 Atg38 homodimer per complex I
binding result [5]: binds
